Test results reported in the supplement of paper PMC10065799, “High-throughput profiling of sequence recognition by tyrosine kinases and SH2 domains using bacterial peptide display” (eLife, 2023).

These sequences were tested against FGFR3 (UniProt P22607) (assay: phosphorylation enrichment, bacterial display (enrichment ratio); higher = better substrate or ligand; peptides without Tyr show the background).
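Note: 11-residue human phosphosite peptides and single-mutation variants displayed on the E. coli surface, counted by deep sequencing, each peptide's frequency after selection divided by its frequency in the unselected input library; frequency after pTyr selection over input frequency; kinase dosed for 20-30% of maximal phosphorylation in three min.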

Chain of FGFR3 (P22607 whole entry, looked up): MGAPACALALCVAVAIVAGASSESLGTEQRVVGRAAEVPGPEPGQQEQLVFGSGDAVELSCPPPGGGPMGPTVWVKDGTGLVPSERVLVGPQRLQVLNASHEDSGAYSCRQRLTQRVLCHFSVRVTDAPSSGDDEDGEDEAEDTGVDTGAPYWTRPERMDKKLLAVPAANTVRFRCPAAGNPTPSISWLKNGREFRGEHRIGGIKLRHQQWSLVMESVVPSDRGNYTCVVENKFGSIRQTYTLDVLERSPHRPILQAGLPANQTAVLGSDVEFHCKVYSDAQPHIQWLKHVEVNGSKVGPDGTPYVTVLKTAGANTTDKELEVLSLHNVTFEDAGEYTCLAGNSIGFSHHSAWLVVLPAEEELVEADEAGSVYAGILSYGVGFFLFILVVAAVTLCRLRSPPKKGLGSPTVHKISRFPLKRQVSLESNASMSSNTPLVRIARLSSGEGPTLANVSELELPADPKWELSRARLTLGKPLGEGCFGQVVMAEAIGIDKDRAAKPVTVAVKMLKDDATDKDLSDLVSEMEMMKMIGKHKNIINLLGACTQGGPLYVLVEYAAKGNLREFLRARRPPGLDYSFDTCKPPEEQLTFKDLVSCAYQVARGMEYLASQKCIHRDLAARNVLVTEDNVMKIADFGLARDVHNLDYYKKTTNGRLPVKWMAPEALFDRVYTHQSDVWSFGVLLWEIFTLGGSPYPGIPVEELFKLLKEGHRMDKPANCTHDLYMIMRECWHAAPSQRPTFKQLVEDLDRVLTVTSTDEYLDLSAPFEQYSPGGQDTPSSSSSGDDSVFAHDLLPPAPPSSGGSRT

Row | Sequence | phosphorylation enrichment
1 | AFGGGYGGVLT [KRT19_Y65_YF] | 0.446
2 | GLETSYIEDNC [PAH_Y24_Q20L] | 0.564
3 | RELGEYGLQAF [ALDH2_Y497_YF] | 0.793
4 | TPIFPYLLPKS [PLD2_Y580_T577I_YF] | 1.57
5 | RLPNGYGLAYR [DLK1_Y262_S260N] | 0.573
6 | EDSEFYRAFEE [CASQ2_Y179_K180R_YF] | 0.848
7 | QADVVYVNTQL [MERTK_Y872_I871V] | 0.648
8 | PDGVEYLKNDP [GRIN3A_Y831] | 0.771
9 | FSPPFYHRNCM [HGD_Y334_R330S_YF] | 0.632
10 | KKEGPYDVVVL [PARK7_Y67] | 0.546
11 | KVKSIYFHTQG [AR_Y916_P914S] | 0.544
12 | GANFEYIIAEK [ECHS1_Y35] | 0.594
13 | AELVQYYMEHH [PTPN11_Y80] | 0.954
14 | FADGVYQALEE [DUOX2_Y70_YF] | 0.666
15 | FRSSLYSLMET [MYO5C_Y633_L634S] | 0.947
16 | FFCRWYRNRKS [EREG_Y144_YF] | 0.409
17 | VIEYSYTSADG [DHCR7_Y382_C380Y] | 0.82

Row | Sequence | phosphorylation enrichment
18 | SSTAMYSAAGR [PSMB1_Y8_P11A] | 0.342
19 | LNPVVYTLRNA [OR4C12_Y285] | 0.69
20 | DLVSEYQQFQD [TUBB3_Y422_YF] | 1.01
21 | AGHEEYSAMRD [KRAS_Y64_Q61H] | 0.588
22 | IRFSDYVEVAD [PHACTR1_Y525] | 1.58
23 | SDQRRYSLIDR [CLIP2_Y972] | 0.421
24 | MSRNLYSGDFF [DDR2_Y736_YF] | 2.16
25 | RYFTTYDTNGR [CLCA1_Y665] | 0.598
26 | SQGRQYQELPR [KCNH2_Y1009_R1005Q] | 0.477
27 | LRRFIYRPPDR [OTOF_Y1231] | 0.656
28 | TEALFYTDDPA [ADPRS_Y75_T79P_YF] | 1.3
29 | CTTIHHNYMCN [TP53_Y234_Y234H] | 0.586
30 | NLVSEYQQYQD [TUBB3_Y422_D417N] | 0.726
31 | RVILRYVNPGT [LAMA3_Y791] | 0.883
32 | PQDSAYHSGIQ [FLG_Y3940_S3935P] | 0.522
33 | KLPDAYERFIL [G6PD_Y437_L440F] | 0.661

What follows are sequences tested on Fer (mouse) in the same assay as above.

Row | Sequence | phosphorylation enrichment
34 | AFGGGYGGVLT [KRT19_Y65_YF] | 0.312
35 | GLETSYIEDNC [PAH_Y24_Q20L] | 0.466
36 | RELGEYGLQAF [ALDH2_Y497_YF] | 0.816
37 | TPIFPYLLPKS [PLD2_Y580_T577I_YF] | 0.551
38 | RLPNGYGLAYR [DLK1_Y262_S260N] | 0.504
39 | EDSEFYRAFEE [CASQ2_Y179_K180R_YF] | 0.489
40 | QADVVYVNTQL [MERTK_Y872_I871V] | 3.51
41 | PDGVEYLKNDP [GRIN3A_Y831] | 0.75
42 | FSPPFYHRNCM [HGD_Y334_R330S_YF] | 0.465
43 | KKEGPYDVVVL [PARK7_Y67] | 6.5
44 | KVKSIYFHTQG [AR_Y916_P914S] | 0.367
45 | GANFEYIIAEK [ECHS1_Y35] | 0.406
46 | AELVQYYMEHH [PTPN11_Y80] | 0.494
47 | FADGVYQALEE [DUOX2_Y70_YF] | 1.1
48 | FRSSLYSLMET [MYO5C_Y633_L634S] | 9.51
49 | FFCRWYRNRKS [EREG_Y144_YF] | 0.312
50 | VIEYSYTSADG [DHCR7_Y382_C380Y] | 0.538

Row | Sequence | phosphorylation enrichment
51 | SSTAMYSAAGR [PSMB1_Y8_P11A] | 0.442
52 | LNPVVYTLRNA [OR4C12_Y285] | 0.856
53 | DLVSEYQQFQD [TUBB3_Y422_YF] | 0.58
54 | AGHEEYSAMRD [KRAS_Y64_Q61H] | 0.43
55 | IRFSDYVEVAD [PHACTR1_Y525] | 0.431
56 | SDQRRYSLIDR [CLIP2_Y972] | 0.412
57 | MSRNLYSGDFF [DDR2_Y736_YF] | 1.57
58 | RYFTTYDTNGR [CLCA1_Y665] | 0.471
59 | SQGRQYQELPR [KCNH2_Y1009_R1005Q] | 0.402
60 | LRRFIYRPPDR [OTOF_Y1231] | 0.583
61 | TEALFYTDDPA [ADPRS_Y75_T79P_YF] | 0.863
62 | CTTIHHNYMCN [TP53_Y234_Y234H] | 0.412
63 | NLVSEYQQYQD [TUBB3_Y422_D417N] | 0.508
64 | RVILRYVNPGT [LAMA3_Y791] | 0.606
65 | PQDSAYHSGIQ [FLG_Y3940_S3935P] | 0.419
66 | KLPDAYERFIL [G6PD_Y437_L440F] | 1.22

These sequences were tested against Fes (UniProt P07332) in the same assay as above.
Chain of Fes (P07332 whole entry, looked up): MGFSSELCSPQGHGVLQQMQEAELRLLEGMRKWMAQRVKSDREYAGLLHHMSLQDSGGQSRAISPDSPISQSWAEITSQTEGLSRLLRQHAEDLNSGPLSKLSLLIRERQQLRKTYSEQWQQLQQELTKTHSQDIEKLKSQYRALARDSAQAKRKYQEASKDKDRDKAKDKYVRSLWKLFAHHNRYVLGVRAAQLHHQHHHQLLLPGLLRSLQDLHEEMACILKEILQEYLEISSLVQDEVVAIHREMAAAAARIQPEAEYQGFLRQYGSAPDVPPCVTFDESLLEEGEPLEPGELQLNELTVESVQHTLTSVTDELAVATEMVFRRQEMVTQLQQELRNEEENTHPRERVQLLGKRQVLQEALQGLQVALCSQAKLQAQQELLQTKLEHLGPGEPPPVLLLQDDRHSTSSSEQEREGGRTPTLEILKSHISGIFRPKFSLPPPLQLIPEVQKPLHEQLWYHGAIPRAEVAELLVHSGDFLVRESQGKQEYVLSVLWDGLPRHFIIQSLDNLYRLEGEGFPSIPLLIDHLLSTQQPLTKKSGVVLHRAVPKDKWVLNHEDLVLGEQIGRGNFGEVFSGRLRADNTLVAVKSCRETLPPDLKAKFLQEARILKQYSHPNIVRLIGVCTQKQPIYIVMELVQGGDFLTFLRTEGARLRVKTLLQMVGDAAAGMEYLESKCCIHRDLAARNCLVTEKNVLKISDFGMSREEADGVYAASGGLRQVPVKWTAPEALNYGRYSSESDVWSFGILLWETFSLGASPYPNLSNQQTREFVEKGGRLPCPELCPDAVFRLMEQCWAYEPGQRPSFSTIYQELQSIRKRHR

Row | Sequence | phosphorylation enrichment
67 | AFGGGYGGVLT [KRT19_Y65_YF] | 0.647
68 | GLETSYIEDNC [PAH_Y24_Q20L] | 0.937
69 | RELGEYGLQAF [ALDH2_Y497_YF] | 1.66
70 | TPIFPYLLPKS [PLD2_Y580_T577I_YF] | 0.685
71 | RLPNGYGLAYR [DLK1_Y262_S260N] | 0.737
72 | EDSEFYRAFEE [CASQ2_Y179_K180R_YF] | 1.07
73 | QADVVYVNTQL [MERTK_Y872_I871V] | 1.8
74 | PDGVEYLKNDP [GRIN3A_Y831] | 1.36
75 | FSPPFYHRNCM [HGD_Y334_R330S_YF] | 0.89
76 | KKEGPYDVVVL [PARK7_Y67] | 0.776
77 | KVKSIYFHTQG [AR_Y916_P914S] | 0.718
78 | GANFEYIIAEK [ECHS1_Y35] | 0.862
79 | AELVQYYMEHH [PTPN11_Y80] | 1.26
80 | FADGVYQALEE [DUOX2_Y70_YF] | 1.3
81 | FRSSLYSLMET [MYO5C_Y633_L634S] | 1.16
82 | FFCRWYRNRKS [EREG_Y144_YF] | 0.453
83 | VIEYSYTSADG [DHCR7_Y382_C380Y] | 1.19

Row | Sequence | phosphorylation enrichment
84 | SSTAMYSAAGR [PSMB1_Y8_P11A] | 0.455
85 | LNPVVYTLRNA [OR4C12_Y285] | 1.09
86 | DLVSEYQQFQD [TUBB3_Y422_YF] | 1.33
87 | AGHEEYSAMRD [KRAS_Y64_Q61H] | 0.981
88 | IRFSDYVEVAD [PHACTR1_Y525] | 1.01
89 | SDQRRYSLIDR [CLIP2_Y972] | 0.558
90 | MSRNLYSGDFF [DDR2_Y736_YF] | 0.98
91 | RYFTTYDTNGR [CLCA1_Y665] | 0.746
92 | SQGRQYQELPR [KCNH2_Y1009_R1005Q] | 0.568
93 | LRRFIYRPPDR [OTOF_Y1231] | 1.18
94 | TEALFYTDDPA [ADPRS_Y75_T79P_YF] | 1.82
95 | CTTIHHNYMCN [TP53_Y234_Y234H] | 0.649
96 | NLVSEYQQYQD [TUBB3_Y422_D417N] | 1.05
97 | RVILRYVNPGT [LAMA3_Y791] | 1.13
98 | PQDSAYHSGIQ [FLG_Y3940_S3935P] | 0.755
99 | KLPDAYERFIL [G6PD_Y437_L440F] | 1.06

These sequences were tested against Fyn (UniProt P06241) in the same assay as above.
Chain of Fyn (P06241 whole entry, looked up): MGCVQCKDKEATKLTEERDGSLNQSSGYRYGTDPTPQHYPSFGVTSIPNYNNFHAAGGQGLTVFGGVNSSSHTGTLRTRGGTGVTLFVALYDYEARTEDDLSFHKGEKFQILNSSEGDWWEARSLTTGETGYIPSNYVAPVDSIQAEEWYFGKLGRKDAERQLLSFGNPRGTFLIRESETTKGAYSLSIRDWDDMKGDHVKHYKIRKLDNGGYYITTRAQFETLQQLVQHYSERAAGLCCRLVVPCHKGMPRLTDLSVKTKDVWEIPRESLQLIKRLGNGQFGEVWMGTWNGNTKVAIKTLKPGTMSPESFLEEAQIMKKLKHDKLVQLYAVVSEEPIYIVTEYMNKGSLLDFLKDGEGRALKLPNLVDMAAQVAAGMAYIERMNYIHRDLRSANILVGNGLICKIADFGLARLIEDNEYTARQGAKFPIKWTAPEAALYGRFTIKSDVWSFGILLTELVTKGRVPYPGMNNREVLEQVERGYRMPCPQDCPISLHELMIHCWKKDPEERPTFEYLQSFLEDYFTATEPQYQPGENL

Row | Sequence | phosphorylation enrichment
100 | AFGGGYGGVLT [KRT19_Y65_YF] | 0.378
101 | GLETSYIEDNC [PAH_Y24_Q20L] | 0.525
102 | RELGEYGLQAF [ALDH2_Y497_YF] | 0.775
103 | TPIFPYLLPKS [PLD2_Y580_T577I_YF] | 0.799
104 | RLPNGYGLAYR [DLK1_Y262_S260N] | 0.961
105 | EDSEFYRAFEE [CASQ2_Y179_K180R_YF] | 0.538
106 | QADVVYVNTQL [MERTK_Y872_I871V] | 0.729
107 | PDGVEYLKNDP [GRIN3A_Y831] | 0.851
108 | FSPPFYHRNCM [HGD_Y334_R330S_YF] | 0.377
109 | KKEGPYDVVVL [PARK7_Y67] | 1.01
110 | KVKSIYFHTQG [AR_Y916_P914S] | 0.51
111 | GANFEYIIAEK [ECHS1_Y35] | 0.479
112 | AELVQYYMEHH [PTPN11_Y80] | 0.654
113 | FADGVYQALEE [DUOX2_Y70_YF] | 3.65
114 | FRSSLYSLMET [MYO5C_Y633_L634S] | 4.25
115 | FFCRWYRNRKS [EREG_Y144_YF] | 0.563
116 | VIEYSYTSADG [DHCR7_Y382_C380Y] | 0.497

Row | Sequence | phosphorylation enrichment
117 | SSTAMYSAAGR [PSMB1_Y8_P11A] | 0.403
118 | LNPVVYTLRNA [OR4C12_Y285] | 0.635
119 | DLVSEYQQFQD [TUBB3_Y422_YF] | 0.675
120 | AGHEEYSAMRD [KRAS_Y64_Q61H] | 0.588
121 | IRFSDYVEVAD [PHACTR1_Y525] | 0.538
122 | SDQRRYSLIDR [CLIP2_Y972] | 0.394
123 | MSRNLYSGDFF [DDR2_Y736_YF] | 5.54
124 | RYFTTYDTNGR [CLCA1_Y665] | 0.693
125 | SQGRQYQELPR [KCNH2_Y1009_R1005Q] | 0.45
126 | LRRFIYRPPDR [OTOF_Y1231] | 0.678
127 | TEALFYTDDPA [ADPRS_Y75_T79P_YF] | 0.645
128 | CTTIHHNYMCN [TP53_Y234_Y234H] | 0.459
129 | NLVSEYQQYQD [TUBB3_Y422_D417N] | 0.592
130 | RVILRYVNPGT [LAMA3_Y791] | 0.591
131 | PQDSAYHSGIQ [FLG_Y3940_S3935P] | 0.459
132 | KLPDAYERFIL [G6PD_Y437_L440F] | 0.578
